This note sets out measurements from PMC2708863.

pKd: −log10 of the molar value. Like-named read-outs stand apart in the source and are kept apart here.

Holding throughout (test): NMR titration
The target of assay [1] is ^4–5FnI, human fibronectin residues 183–275 (human) (UniProt P02751).
For assay [2], the target named is ^2–3FnI, human fibronectin residues 93–182 (human) (UniProt P02751).
The target in assay [3] is ^4–5FnI, human fibronectin residues 183–275 (human) (UniProt P02751). The source holds these as a separate data set.
The target of assay [4] is ^2–5FnI, second to fifth type I domains of human fibronectin (human).

What is called pKd is the Kd on a negative log10 scale, so that one unit is a factor of ten. A low value points to a large Kd. Consider “^2FnIII, second type III domain of human fibronectin (domain or fragment)”, for which the pKd in assay [1] is 3.09; in assay [2] it was 3.15; in assay [3], 2.92.

As for “^2–3FnIII, second and third type III domains of human fibronectin (domain or fragment)”, in assay [4], the pKd is 3.90 and the fractional saturation worked out at 25%.
